Source: US20250171562A1 (ALK ABELL, published 2025)

Molecular target: T1, recombinant human IgE (human, UniProt P01854-1 1-428)
T1 construct: made in-house (ALK); preloaded on immobilised FcεRIα in the displacement ELISA
Assay: IgE-FcεRIα displacement ELISA
Method: The displacement effect was tested using IgE-FcεRIα displacement ELISA assay. Maxisorp® microtiter plates (Thermo Scientific Nunc, Roskilde, Denmark) were coated with 100 μl streptavidin, 5 μg/ml (Thermo Scientific, Waltham, MA) for 18 h at 4° C. followed by wash with 300 μl washing buffer (PBS containing 0.05% Tween 20) using an AquaMax® 2000 plate washer (Molecular Devices, San Jose, CA). Remaining binding sites were blocked with 250 μl blocking buffer (PBS containing 2% BSA) for 2 h and washed with 300 μl washing buffer. Subsequently, the bound streptavidin was loaded with 100 μl (0.1 μg/ml) recombinant human FcεRIα (site specific biotinylated via avi-tag, made in-house, ALK, Hørsholm, Denmark) for 1 h and plates washed twice with 300 μl washing buffer. The bound receptor was then loaded with 100 μl recombinant human IgE (made in-house, ALK, Hørsholm, Denmark), 13 ng/ml (pre-titrated to reach an OD₄₅₀ signal in the range of 1.5-2.5 in the absence of displacement components) for 1h followed by three washes of 300 μl washing buffer.
displacement step: 100 μl sdAbs diluted in concentration series (pM-μM range) or blocking buffer only as a non-displacement negative control, were added to the ELISA wells and incubated for 1 h. Any IgE, displaced from the receptor by a sdAb was washed away by three washes of 300 μl washing buffer.
The ability of the various sdAbs to displace IgE from the receptor (FcεRIα) was evaluated by use of the ELISA based IgE-FcεRIα displacement assay. The percent displacement effect was calculated as the relative reduction in signal compared to the control with no sdAb added. The EC₅₀ values and the maximal effects were determined (table 15).

T1 sequence (P01854 other isoform, or with tags, fused parts or gaps): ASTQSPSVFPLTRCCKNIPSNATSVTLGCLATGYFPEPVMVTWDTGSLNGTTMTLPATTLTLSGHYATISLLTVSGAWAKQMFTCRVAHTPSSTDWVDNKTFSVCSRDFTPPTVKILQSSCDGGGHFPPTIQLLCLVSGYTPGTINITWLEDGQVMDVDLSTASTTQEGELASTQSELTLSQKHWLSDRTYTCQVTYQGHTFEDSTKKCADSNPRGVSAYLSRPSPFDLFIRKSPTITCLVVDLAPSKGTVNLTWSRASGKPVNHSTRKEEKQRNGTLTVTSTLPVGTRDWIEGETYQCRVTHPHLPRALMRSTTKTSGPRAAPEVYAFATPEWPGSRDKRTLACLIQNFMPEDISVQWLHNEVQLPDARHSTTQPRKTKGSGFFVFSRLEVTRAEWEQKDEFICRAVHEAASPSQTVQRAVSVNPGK

EC50	Max effect	Binder
230 nM	–	NIgG4A1A1(G4S)2 (Fc fusion) chain 1: EVQLLESGGGLVQPGGSLRLSCAASGFTFGNYDMAWVRQAPGKRPEWVSSIDTGGDITHYADSVKGRFTISRDNAKNTLYLQMNSLRPEDTAVYWCATDEEYALGPNEFDYYGQGTLVTVSSGGGGSGGGGSGPPCPPCPAPEFLGGPSVFLFPPKPKDTLMISRTPEVTCVVVDVSQEDPEVQFNWYVDGVEVHNAKTKPREEQFNSTYRVVSVLTVLHQDWLNGKEYKCKVSNKGLPSSIEKTISKAKGQPREPQVYTLPPCQEEMTKNQVSLWCLVKGFYPSDIAVEWESNGQPENNYKTTPPVLDSDGSFFLYSRLTVDKSRWQEGNVFSCSVMHEALHNHYTQKSLSLSLGK chain 2: EVQLLESGGGLVQPGGSLRLSCAASGFTFGNYDMAWVRQAPGKRPEWVSSIDTGGDITHYADSVKGRFTISRDNAKNTLYLQMNSLRPEDTAVYWCATDEEYALGPNEFDYYGQGTLVTVSSGGGGSGGGGSGPPCPPCPAPEFLGGPSVFLFPPKPKDTLMISRTPEVTCVVVDVSQEDPEVQFNWYVDGVEVHNAKTKPREEQFNSTYRVVSVLTVLHQDWLNGKEYKCKVSNKGLPSSIEKTISKAKGQPREPQVCTLPPSQEEMTKNQVSLSCAVKGFYPSDIAVEWESNGQPENNYKTTPPVLDSDGSFFLVSRLTVDKSRWQEGNVFSCSVMHEALHNHYTQKSLSLSLGK
3.1 nM	> 95%	CIgG4B1A1(G4S)1 (Fc fusion) chain 1: GPPCPPCPAPEFLGGPSVFLFPPKPKDTLMISRTPEVTCVVVDVSQEDPEVQFNWYVDGVEVHNAKTKPREEQFNSTYRVVSVLTVLHQDWLNGKEYKCKVSNKGLPSSIEKTISKAKGQPREPQVYTLPPCQEEMTKNQVSLWCLVKGFYPSDIAVEWESNGQPENNYKTTPPVLDSDGSFFLYSRLTVDKSRWQEGNVFSCSVMHEALHNHYTQKSLSLSLGKGGGGSQVQLQESGGGLVQTGGSLRLSCAVHGRTFSNTGMGWFRQAPGNERQFVAIISPSGTSTYYADSVKGRFTISRDPAKNTVYLQMNSLKMDDTAVYYCAASYGSNWSTLRHQRRNEYDAWGQGTQVAVS chain 2: GPPCPPCPAPEFLGGPSVFLFPPKPKDTLMISRTPEVTCVVVDVSQEDPEVQFNWYVDGVEVHNAKTKPREEQFNSTYRVVSVLTVLHQDWLNGKEYKCKVSNKGLPSSIEKTISKAKGQPREPQVCTLPPSQEEMTKNQVSLSCAVKGFYPSDIAVEWESNGQPENNYKTTPPVLDSDGSFFLVSRLTVDKSRWQEGNVFSCSVMHEALHNHYTQKSLSLSLGKGGGGSEVQLLESGGGLVQPGGSLRLSCAASGFTFGNYDMAWVRQAPGKRPEWVSSIDTGGDITHYADSVKGRFTISRDNAKNTLYLQMNSLRPEDTAVYWCATDEEYALGPNEFDYYGQGTLVTVSS
4 nM	> 95%	CIgG4B1A1(G4S)2 (Fc fusion) chain 1: GPPCPPCPAPEFLGGPSVFLFPPKPKDTLMISRTPEVTCVVVDVSQEDPEVQFNWYVDGVEVHNAKTKPREEQFNSTYRVVSVLTVLHQDWLNGKEYKCKVSNKGLPSSIEKTISKAKGQPREPQVYTLPPCQEEMTKNQVSLWCLVKGFYPSDIAVEWESNGQPENNYKTTPPVLDSDGSFFLYSRLTVDKSRWQEGNVFSCSVMHEALHNHYTQKSLSLSLGKGGGGSGGGGSQVQLQESGGGLVQTGGSLRLSCAVHGRTFSNTGMGWFRQAPGNERQFVAIISPSGTSTYYADSVKGRFTISRDPAKNTVYLQMNSLKMDDTAVYYCAASYGSNWSTLRHQRRNEYDAWGQGTQVAVS chain 2: GPPCPPCPAPEFLGGPSVFLFPPKPKDTLMISRTPEVTCVVVDVSQEDPEVQFNWYVDGVEVHNAKTKPREEQFNSTYRVVSVLTVLHQDWLNGKEYKCKVSNKGLPSSIEKTISKAKGQPREPQVCTLPPSQEEMTKNQVSLSCAVKGFYPSDIAVEWESNGQPENNYKTTPPVLDSDGSFFLVSRLTVDKSRWQEGNVFSCSVMHEALHNHYTQKSLSLSLGKGGGGSGGGGSEVQLLESGGGLVQPGGSLRLSCAASGFTFGNYDMAWVRQAPGKRPEWVSSIDTGGDITHYADSVKGRFTISRDNAKNTLYLQMNSLRPEDTAVYWCATDEEYALGPNEFDYYGQGTLVTVSS
490 nM	–	NIgG4A1A1(RS) (Fc fusion) chain 1: EVQLLESGGGLVQPGGSLRLSCAASGFTFGNYDMAWVRQAPGKRPEWVSSIDTGGDITHYADSVKGRFTISRDNAKNTLYLQMNSLRPEDTAVYWCATDEEYALGPNEFDYYGQGTLVTVSSRSGPPCPPCPAPEFLGGPSVFLFPPKPKDTLMISRTPEVTCVVVDVSQEDPEVQFNWYVDGVEVHNAKTKPREEQFNSTYRVVSVLTVLHQDWLNGKEYKCKVSNKGLPSSIEKTISKAKGQPREPQVYTLPPCQEEMTKNQVSLWCLVKGFYPSDIAVEWESNGQPENNYKTTPPVLDSDGSFFLYSRLTVDKSRWQEGNVFSCSVMHEALHNHYTQKSLSLSLGK chain 2: EVQLLESGGGLVQPGGSLRLSCAASGFTFGNYDMAWVRQAPGKRPEWVSSIDTGGDITHYADSVKGRFTISRDNAKNTLYLQMNSLRPEDTAVYWCATDEEYALGPNEFDYYGQGTLVTVSSRSGPPCPPCPAPEFLGGPSVFLFPPKPKDTLMISRTPEVTCVVVDVSQEDPEVQFNWYVDGVEVHNAKTKPREEQFNSTYRVVSVLTVLHQDWLNGKEYKCKVSNKGLPSSIEKTISKAKGQPREPQVCTLPPSQEEMTKNQVSLSCAVKGFYPSDIAVEWESNGQPENNYKTTPPVLDSDGSFFLVSRLTVDKSRWQEGNVFSCSVMHEALHNHYTQKSLSLSLGK
3.5 nM	> 95%	CIgG4B1A1(G4S3) (Fc fusion) chain 1: GPPCPPCPAPEFLGGPSVFLFPPKPKDTLMISRTPEVTCVVVDVSQEDPEVQFNWYVDGVEVHNAKTKPREEQFNSTYRVVSVLTVLHQDWLNGKEYKCKVSNKGLPSSIEKTISKAKGQPREPQVYTLPPCQEEMTKNQVSLWCLVKGFYPSDIAVEWESNGQPENNYKTTPPVLDSDGSFFLYSRLTVDKSRWQEGNVFSCSVMHEALHNHYTQKSLSLSLGKGGGGSGGGGSGGGGSQVQLQESGGGLVQTGGSLRLSCAVHGRTFSNTGMGWFRQAPGNERQFVAIISPSGTSTYYADSVKGRFTISRDPAKNTVYLQMNSLKMDDTAVYYCAASYGSNWSTLRHQRRNEYDAWGQGTQVAVS chain 2: GPPCPPCPAPEFLGGPSVFLFPPKPKDTLMISRTPEVTCVVVDVSQEDPEVQFNWYVDGVEVHNAKTKPREEQFNSTYRVVSVLTVLHQDWLNGKEYKCKVSNKGLPSSIEKTISKAKGQPREPQVCTLPPSQEEMTKNQVSLSCAVKGFYPSDIAVEWESNGQPENNYKTTPPVLDSDGSFFLVSRLTVDKSRWQEGNVFSCSVMHEALHNHYTQKSLSLSLGKGGGGSGGGGSGGGGSEVQLLESGGGLVQPGGSLRLSCAASGFTFGNYDMAWVRQAPGKRPEWVSSIDTGGDITHYADSVKGRFTISRDNAKNTLYLQMNSLRPEDTAVYWCATDEEYALGPNEFDYYGQGTLVTVSS
260 nM	–	NIgG4A1A1(G4S)1 (Fc fusion) chain 1: EVQLLESGGGLVQPGGSLRLSCAASGFTFGNYDMAWVRQAPGKRPEWVSSIDTGGDITHYADSVKGRFTISRDNAKNTLYLQMNSLRPEDTAVYWCATDEEYALGPNEFDYYGQGTLVTVSSGGGGSGPPCPPCPAPEFLGGPSVFLFPPKPKDTLMISRTPEVTCVVVDVSQEDPEVQFNWYVDGVEVHNAKTKPREEQFNSTYRVVSVLTVLHQDWLNGKEYKCKVSNKGLPSSIEKTISKAKGQPREPQVYTLPPCQEEMTKNQVSLWCLVKGFYPSDIAVEWESNGQPENNYKTTPPVLDSDGSFFLYSRLTVDKSRWQEGNVFSCSVMHEALHNHYTQKSLSLSLGK chain 2: EVQLLESGGGLVQPGGSLRLSCAASGFTFGNYDMAWVRQAPGKRPEWVSSIDTGGDITHYADSVKGRFTISRDNAKNTLYLQMNSLRPEDTAVYWCATDEEYALGPNEFDYYGQGTLVTVSSGGGGSGPPCPPCPAPEFLGGPSVFLFPPKPKDTLMISRTPEVTCVVVDVSQEDPEVQFNWYVDGVEVHNAKTKPREEQFNSTYRVVSVLTVLHQDWLNGKEYKCKVSNKGLPSSIEKTISKAKGQPREPQVCTLPPSQEEMTKNQVSLSCAVKGFYPSDIAVEWESNGQPENNYKTTPPVLDSDGSFFLVSRLTVDKSRWQEGNVFSCSVMHEALHNHYTQKSLSLSLGK
9.8 nM	> 95%	CIgG4B1A1(RS) (Fc fusion) chain 1: GPPCPPCPAPEFLGGPSVFLFPPKPKDTLMISRTPEVTCVVVDVSQEDPEVQFNWYVDGVEVHNAKTKPREEQFNSTYRVVSVLTVLHQDWLNGKEYKCKVSNKGLPSSIEKTISKAKGQPREPQVYTLPPCQEEMTKNQVSLWCLVKGFYPSDIAVEWESNGQPENNYKTTPPVLDSDGSFFLYSRLTVDKSRWQEGNVFSCSVMHEALHNHYTQKSLSLSLGKRSQVQLQESGGGLVQTGGSLRLSCAVHGRTFSNTGMGWFRQAPGNERQFVAIISPSGTSTYYADSVKGRFTISRDPAKNTVYLQMNSLKMDDTAVYYCAASYGSNWSTLRHQRRNEYDAWGQGTQVAVS chain 2: GPPCPPCPAPEFLGGPSVFLFPPKPKDTLMISRTPEVTCVVVDVSQEDPEVQFNWYVDGVEVHNAKTKPREEQFNSTYRVVSVLTVLHQDWLNGKEYKCKVSNKGLPSSIEKTISKAKGQPREPQVCTLPPSQEEMTKNQVSLSCAVKGFYPSDIAVEWESNGQPENNYKTTPPVLDSDGSFFLVSRLTVDKSRWQEGNVFSCSVMHEALHNHYTQKSLSLSLGKRSEVQLLESGGGLVQPGGSLRLSCAASGFTFGNYDMAWVRQAPGKRPEWVSSIDTGGDITHYADSVKGRFTISRDNAKNTLYLQMNSLRPEDTAVYWCATDEEYALGPNEFDYYGQGTLVTVSS
